Data as given in PMC5625035.

Molecular target: PNKP (UniProt Q96T60)
Experiment: Ni-NTA co-purification of XRCC1-His complexes, immunoblot
Conditions: reference: wild-type XRCC1-His; sites S518,T519,T523

binding against the reference: weaker
Substance: XRCC1 (from UniProt P18887) XRCC1-His S518A/T519A/T523A
